For 30 molecules, binding signal results are on record in PMC11417369, “DNA sequence and chromatin differentiate sequence-specific transcription factor binding in the human malaria parasite Plasmodium falciparum”.

First the molecules themselves.
B1: XGTACX_site8441 (dsDNA)
DNA 1: AATAATATCTGAAAATGTACATTTTATTATAAACAT
DNA 2: ATGTTTATAATAAAATGTACATTTTCAGATATTATT
B2: XGTACX_negctrl_site18 (dsDNA)
DNA 1: TCATAAAAAGGAATCTTTAAGATATTTTATAAGCTC
DNA 2: GAGCTTATAAAATATCTTAAAGATTCCTTTTTATGA
B3: XGTACX_negctrl_site8 (dsDNA)
DNA 1: TAAAACATGTTTTTATATATTATTATTATATTTATA
DNA 2: TATAAATATAATAATAATATATAAAAACATGTTTTA
B4: XGTACX_negctrl_site51 (dsDNA)
DNA 1: AAAAATAAAAAATATAAAAATATAAAAATATAAAAA
DNA 2: TTTTTATATTTTTATATTTTTATATTTTTTATTTTT
B5: XGTACX_site3331 (dsDNA)
DNA 1: AAAAATTTTTTACATCGTACAGATATATATAATAAA
DNA 2: TTTATTATATATATCTGTACGATGTAAAAAATTTTT
B6: XGTACX_site8520 (dsDNA)
DNA 1: ATATGAAAAAGAACTTGTACTAAAGTGGCATATTAT
DNA 2: ATAATATGCCACTTTAGTACAAGTTCTTTTTCATAT
B7: XGTACX_site1904 (dsDNA)
DNA 1: TTGACATATAAGATATGTACTAATACACACACATAT
DNA 2: ATATGTGTGTGTATTAGTACATATCTTATATGTCAA
B8: XGTACX_site8424 (dsDNA)
DNA 1: TATTTTGTCATAGAACGTACTTATAAATATTTTTTT
DNA 2: AAAAAAATATTTATAAGTACGTTCTATGACAAAATA
B9: XGTACX_site4080 (dsDNA)
DNA 1: AATACAATTGAAAATTGTACTTTGTTTTTTATAAAT
DNA 2: ATTTATAAAAAACAAAGTACAATTTTCAATTGTATT
B10: XGTACX_negctrl_site79 (dsDNA)
DNA 1: TACATGTATGTAATATGTTTTATTTTTTTCATCTCT
DNA 2: AGAGATGAAAAAAATAAAACATATTACATACATGTA
B11: XGTACX_negctrl_site442 (dsDNA)
DNA 1: TATTTTATTTCAAATCTTAATAATTGTAATTCTTCA
DNA 2: TGAAGAATTACAATTATTAAGATTTGAAATAAAATA
B12: XGTACX_site6203 (dsDNA)
DNA 1: AAAAAAAAAAAATAAAGTACTAAATAATACATTATA
DNA 2: TATAATGTATTATTTAGTACTTTATTTTTTTTTTTT
B13: XGTACX_site7313 (dsDNA)
DNA 1: TATATACTTTATAAATGTACATATAATGTATTATTT
DNA 2: AAATAATACATTATATGTACATTTATAAAGTATATA
B14: XGTACX_negctrl_site127 (dsDNA)
DNA 1: TTTTTAAAAAAATTGATTCTTTTTCTTTTTTTTCTT
DNA 2: AAGAAAAAAAAGAAAAAGAATCAATTTTTTTAAAAA
B15: XGTACX_negctrl_site84 (dsDNA)
DNA 1: TTCAAAAAATAAAATAATAATATATATATAAATATA
DNA 2: TATATTTATATATATATTATTATTTTATTTTTTGAA
B16: XGTACX_site5075 (dsDNA)
DNA 1: AAATGAAGATTTAAATGTACGAGAGGGTATACAAAT
DNA 2: ATTTGTATACCCTCTCGTACATTTAAATCTTCATTT
B17: XGTACX_site5536 (dsDNA)
DNA 1: TAACACACTAAGAAAAGTACTGATTAATATAATTTT
DNA 2: AAAATTATATTAATCAGTACTTTTCTTAGTGTGTTA
B18: XGTACX_site7465 (dsDNA)
DNA 1: TTTAATTCTTATATTTGTACAGATTCATAATTAAAT
DNA 2: ATTTAATTATGAATCTGTACAAATATAAGAATTAAA
B19: XGTACX_negctrl_site511 (dsDNA)
DNA 1: ATGAAATCTTTAGAATATAGATGATGTTATTTAATT
DNA 2: AATTAAATAACATCATCTATATTCTAAAGATTTCAT
B20: XGTACX_site8398 (dsDNA)
DNA 1: TAAAAAATAAAATAATGTACATATGAATTATATATT
DNA 2: AATATATAATTCATATGTACATTATTTTATTTTTTA
B21: XGTACX_negctrl_site344 (dsDNA)
DNA 1: TACAAAAAAATAAATAATAAAAAAAAATATATATAA
DNA 2: TTATATATATTTTTTTTTATTATTTATTTTTTTGTA
B22: XGTACX_negctrl_site412 (dsDNA)
DNA 1: AAAGGAGACAGAATAAGAATAAATATTATACATATA
DNA 2: TATATGTATAATATTTATTCTTATTCTGTCTCCTTT
B23: XGTACX_site4343 (dsDNA)
DNA 1: TTTATATACTATCAACGTACAAAAGTAATAAAAATA
DNA 2: TATTTTTATTACTTTTGTACGTTGATAGTATATAAA
B24: XGTACX_site8946 (dsDNA)
DNA 1: ATTAATCCAAATGAATGTACTTAATAATGTAATTAT
DNA 2: ATAATTACATTATTAAGTACATTCATTTGGATTAAT
B25: XGTACX_site2716 (dsDNA)
DNA 1: AAAACTTTCCATGTTTGTACATAAAATATAATAATT
DNA 2: AATTATTATATTTTATGTACAAACATGGAAAGTTTT
B26: XGTACX_site287 (dsDNA)
DNA 1: AACAAAGAAAATACATGTACAAAAAATATTAACGAA
DNA 2: TTCGTTAATATTTTTTGTACATGTATTTTCTTTGTT
B27: XGTACX_site611 (dsDNA)
DNA 1: TAATTTCTTATGTATTGTACAAATAATATATGATAT
DNA 2: ATATCATATATTATTTGTACAATACATAAGAAATTA
B28: XGTACX_site1009 (dsDNA)
DNA 1: AATGTATTTATTTTTTGTACATATCGTGTGTGTATT
DNA 2: AATACACACACGATATGTACAAAAAATAAATACATT
B29: XGTACX_site5843 (dsDNA)
DNA 1: ATTTCAAAATATAGCTGTACAAAAAATGTAGATATA
DNA 2: TATATCTACATTTTTTGTACAGCTATATTTTGAAAT
B30: XGTACX_site7391 (dsDNA)
DNA 1: TGTCAATCATATAAATGTACATTTTAAATGAGGTGT
DNA 2: ACACCTCATTTAAAATGTACATTTATATGATTGACA

The target in this data set is T1, AP2-G D1 (Plasmodium falciparum, UniProt Q8I5I9 2123-2245).
T1 sequence: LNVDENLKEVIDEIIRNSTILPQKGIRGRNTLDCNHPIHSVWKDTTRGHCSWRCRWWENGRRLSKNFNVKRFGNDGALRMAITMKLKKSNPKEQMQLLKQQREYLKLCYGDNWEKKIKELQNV
In words: gcPBM; about 25 ug protein; PBS, 1% milk, 0.2 mg/ml BSA, salmon testes DNA, 0.03% Triton X-100. As to conditions: tags: N-terminal GST (pGEX-4T-1), kept; label: surface-attached array probe.
Turning to B1, the binding signal was 11.2 ln median PBM intensity, better of two orientations.
Turning to B2, the binding signal was 9.17 ln median PBM intensity, better of two orientations.
Turning to B3, the binding signal was 9.11 ln median PBM intensity, better of two orientations.
The result for B4 reads 9.09 ln median PBM intensity, better of two orientations.
The figure for B5 is 11.2 ln median PBM intensity, better of two orientations.
The result for B6 reads 11.3 ln median PBM intensity, better of two orientations; that for B7, 11.2 ln median PBM intensity, better of two orientations.
In the case of B8, the binding signal is 11.3 ln median PBM intensity, better of two orientations.
The figure for B9 is 11.3 ln median PBM intensity, better of two orientations.
For B10, the binding signal was 9.12 ln median PBM intensity, better of two orientations.
As for B11, the binding signal is 8.99 ln median PBM intensity, better of two orientations.
B12: the binding signal was 11.2 ln median PBM intensity, better of two orientations.
The result for B13 reads 11.3 ln median PBM intensity, better of two orientations; that for B14, 9.16 ln median PBM intensity, better of two orientations; that for B15, 9.17 ln median PBM intensity, better of two orientations.
The figure for B16 is 11.2 ln median PBM intensity, better of two orientations; for B17 it is 11.2 ln median PBM intensity, better of two orientations.
Take B18: the binding signal was 11.2 ln median PBM intensity, better of two orientations.
For B19, the binding signal was 9.15 ln median PBM intensity, better of two orientations.
Turning to B20, the binding signal is 11.2 ln median PBM intensity, better of two orientations.
Turning to B21, the binding signal was 9.07 ln median PBM intensity, better of two orientations.
The figure for B22 is 9.08 ln median PBM intensity, better of two orientations.
The result for B23 reads 11.3 ln median PBM intensity, better of two orientations.
As to B24, the binding signal was 11.2 ln median PBM intensity, better of two orientations.
The result for B25 reads 11.3 ln median PBM intensity, better of two orientations.
The result for B26 reads 11.2 ln median PBM intensity, better of two orientations.
With B27, the binding signal is 11.3 ln median PBM intensity, better of two orientations.
As to B28, the binding signal was 11.2 ln median PBM intensity, better of two orientations.
The figure for B29 is 11.2 ln median PBM intensity, better of two orientations.
Take B30: the binding signal is 11.2 ln median PBM intensity, better of two orientations.
